Here are results for 84 variants from the RNAGym collection of RNA variant scans (doi:10.1101/gr.219683.116).

B1: mRNA-splicing (parent)
chain: AGUUGCUGCUGGGAGCUCCAGCACAGUGAAAUGGACAGAAGGGCAGAGCAA

The variants in the data set derive from B1. Briefly: exon inclusion enrichment index; higher = more inclusion; WT1 exon 5 minigene, HEK293.
As for G5U C6U U7C U10C, the “exon inclusion enrichment index” value was 3.03. As to G5A C6U U7A G8U C9A A39G A40U, the “exon inclusion enrichment index” value turned out to be 0.00682. As for G5A U7C G8A U10C C18U C19A, the “exon inclusion enrichment index” value amounted to 0.212. As for G5A U7C G8A U10C C18U C19U, the “exon inclusion enrichment index” value is 0.0421. For G5A U7C G8A U10C C18U C19G, the “exon inclusion enrichment index” value was found to be 0.804. In the case of G5A U7C G8A U10C G21C, the “exon inclusion enrichment index” value was 2.25. Consider G5A U7C G8A U10C G21A, for which the “exon inclusion enrichment index” value was 1.67. In the case of G5C C6A U7C G8A U10A A40U G41C, the “exon inclusion enrichment index” value is 0.451. Consider C22G, for which the “exon inclusion enrichment index” value is 2.76. C6A U7C C9A U10C A14C G15U: the “exon inclusion enrichment index” value is 2.32. The result for C6A U7C C9A U10C A23U reads 2.78; that for C6G C9A U10A, 0.229.

As to G5C C6G U7C U10C G34C, the “exon inclusion enrichment index” value turned out to be 1.79.

For U4G G5U G8U C9U, the “exon inclusion enrichment index” value came to 0.267. The result for G5U C6G U7C G8A U10A reads 0.1. The result for G5U G8U C9U A29U reads 0.0318; that for G5C C6G U7C U10C U27A, 3.66. Take C6A U7A C9A U10A C36U A37U: the “exon inclusion enrichment index” value worked out at 0.411.

With G5A C6U U7A G8U C9A G33C G34A, the “exon inclusion enrichment index” value came to 0.0386. Under G41U G42C stands 0.49. The result for G5A C6G U7G C9A G41C G42A reads 0.00376. Turning to G5U G8U C9U G21U C22A, the “exon inclusion enrichment index” value is 0.0438. On to G5A U7C G8A U10C A45U G46C, for which the “exon inclusion enrichment index” value is 1.55. As to G5C C6U G8C C9U U10C A14G G15C, the “exon inclusion enrichment index” value came to 0.826.

As to C6A U7C C9A U10C A35U, the “exon inclusion enrichment index” value turned out to be 1.36. The result for G5A U7C G8A U10C G12A G13U reads 0.132; that for G5A U7C G8A U10C A40C G41A, 0.979; that for G5C C6G U7C U10C, 3.75. For A29G A30U, the “exon inclusion enrichment index” value was found to be 0.0289.

In the case of G2A C6A U7A C9A U10A, the “exon inclusion enrichment index” value stood at 0.929.

For the variant G5C C6A U7C G8A U10A C24G A25G, the “exon inclusion enrichment index” value came out at 0.034. With G5U G8U C9U A45C, the “exon inclusion enrichment index” value is 0.201. Turning to C6A G8C C9U U10C, the “exon inclusion enrichment index” value is 1.43. Regarding C6A U7A C9A U10A A20C G21A, the “exon inclusion enrichment index” value stood at 0.223.

Turning to G5A C6G U7G C9A G46C A47G, the “exon inclusion enrichment index” value amounted to 0.00214. On to G5C C6G U7C U10C A45U G46U, for which the “exon inclusion enrichment index” value was found to be 1.75. Consider G5C C6G U7C U10C A45U G46A, for which the “exon inclusion enrichment index” value was found to be 2.95.

Consider U7C G8A, for which the “exon inclusion enrichment index” value was 1.44.

As for G5C C6U G8C C9U U10C G43C C44G, the “exon inclusion enrichment index” value came out at 4.6. Under G5A C6G U7G C9A C36U A37U stands 0.00084. C16A U17A: the “exon inclusion enrichment index” value was determined as 0.0497.

For U4G, the “exon inclusion enrichment index” value is 0.0792. For G5C C6G U7C U10C A37U G38A, the “exon inclusion enrichment index” value came out at 1.78. On to G5A C6U U7A G8U C9A A47U G48A, for which the “exon inclusion enrichment index” value turned out to be 0.0443.

For G5C C6A U7C G8A U10A U17C C18G, the “exon inclusion enrichment index” value turned out to be 0.166. G46U A47U: the “exon inclusion enrichment index” value is 0.237. For the variant C6A U7C C9A U10C A47U G48C, the “exon inclusion enrichment index” value worked out at 2.31. As for G5C C6U G8C C9U U10C G46C A47G, the “exon inclusion enrichment index” value came to 2.72. Take C6A U7C C9A U10C G28C A29G: the “exon inclusion enrichment index” value was determined as 3.91. For the variant G5C C6U G8C C9U U10C G33C G34U, the “exon inclusion enrichment index” value stood at 1.29. On to C6A U7A C9A U10A A31U, for which the “exon inclusion enrichment index” value was found to be 0.592. Under C6A U7A C9A U10A A37C stands 1.72. As for G2U U3C G5A U7C G8A U10C, the “exon inclusion enrichment index” value was 4.11. G5C C6U G8C C9U U10C A30G A31G: the “exon inclusion enrichment index” value is 0.469. The result for G5A C6U U7A G8U C9A A30C A31U reads 0.0899. Consider G5C C6U G8C C9U U10C G33U G34U, for which the “exon inclusion enrichment index” value was determined as 0.282.

Consider G5C C6U G8C C9U U10C A40C G41C, for which the “exon inclusion enrichment index” value was determined as 2.97. Under G5A C6G U7G C9A U32A G33U stands 0.00206; under A31G U32C, 0.99.

For G5C C6U G8C C9U U10C A39C A40G, the “exon inclusion enrichment index” value was found to be 2.03. The result for G5A U7C G8A U10C A40U G41C reads 3.14; that for U32A G33U, 0.0657. Take G5A C6U U7A G8U C9A A47C G48A: the “exon inclusion enrichment index” value was 0.0387. On to G5C C6G U7C U10C C36G A37U, for which the “exon inclusion enrichment index” value came out at 2.09. As to G2U C6A U7C C9A U10C, the “exon inclusion enrichment index” value was determined as 4.3.

As to C6A U7A C9A U10A C44A A45G, the “exon inclusion enrichment index” value was 1.09. Take G5A C6U U7A G8U C9A A14G: the “exon inclusion enrichment index” value turned out to be 0.0395. As to G2U U3A, the “exon inclusion enrichment index” value stood at 0.342. Under G34U A35U stands 0.0144; under G2U U3G C6A U7C C9A U10C, 4.84.

Turning to G5A C6G U7G C9A C44G A45U, the “exon inclusion enrichment index” value stood at 0.00421. Under G5A C6U U7A G8U C9A G13C stands 0.0162; under G5A U7C G8A U10C G21A C22A, 1.09; under A14C G15A, 0.0127. As to C6A U7A C9A U10A A37C G38U, the “exon inclusion enrichment index” value is 0.426. As for G5C C6U G8C C9U U10C A45G, the “exon inclusion enrichment index” value is 3.56. On to G5C C6G U7C U10C G15U C16G, for which the “exon inclusion enrichment index” value was determined as 4.02. On to A29U A30U, for which the “exon inclusion enrichment index” value was 0.0389. For the variant G5A C6U U7A G8U C9A G21C C22G, the “exon inclusion enrichment index” value was found to be 0.197. Take G5C C6G U7A G8A U10C: the “exon inclusion enrichment index” value was found to be 2.49. Consider C6A U7A C9A U10A U17C C18G, for which the “exon inclusion enrichment index” value was determined as 0.655. As for G5A C6G G8A C9A, the “exon inclusion enrichment index” value worked out at 0.00571.

For A35C C36U, the “exon inclusion enrichment index” value was 0.00835. As for U4G G5U C6A U7C C9A U10C, the “exon inclusion enrichment index” value was 2.56.
